Results on one sequence are retold here after article PMC12380113.

By Kd is commonly meant the constant that tells how readily two partners part at equilibrium. Read a high Kd as weaker binding.

The target of series [1] is T1, CD34 (human orbital fibroblasts) (Homo sapiens) (UniProt P28906).
T1 sequence: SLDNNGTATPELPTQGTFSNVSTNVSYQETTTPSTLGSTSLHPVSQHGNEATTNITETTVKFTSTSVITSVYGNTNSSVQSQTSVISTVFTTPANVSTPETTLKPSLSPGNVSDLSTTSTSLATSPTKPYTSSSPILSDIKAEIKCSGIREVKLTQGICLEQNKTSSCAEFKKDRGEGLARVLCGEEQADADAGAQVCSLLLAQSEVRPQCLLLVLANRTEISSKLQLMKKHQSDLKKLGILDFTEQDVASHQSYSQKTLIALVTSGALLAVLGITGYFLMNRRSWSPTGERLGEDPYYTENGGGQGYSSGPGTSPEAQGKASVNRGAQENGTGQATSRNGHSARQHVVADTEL
In words: flow cytometry. The following applies: whole-cell binding to human orbital fibroblasts, 4 C, 1 h, SELEX binding buffer: DPBS, 4.5 mg/mL D-glucose, 5 mM MgCl2, 1 mg/mL BSA, 1 mg/mL yeast tRNA, flow cytometry at 4 C, pull-down lysis buffer 5 mM …. On the technique in general: Flow cytometry measures light scatter and fluorescence of single cells or particles in a stream.

The target in series [2] is T2, CD34 (mouse orbital fibroblasts) (Mus musculus) (UniProt Q64314).
T2 sequence: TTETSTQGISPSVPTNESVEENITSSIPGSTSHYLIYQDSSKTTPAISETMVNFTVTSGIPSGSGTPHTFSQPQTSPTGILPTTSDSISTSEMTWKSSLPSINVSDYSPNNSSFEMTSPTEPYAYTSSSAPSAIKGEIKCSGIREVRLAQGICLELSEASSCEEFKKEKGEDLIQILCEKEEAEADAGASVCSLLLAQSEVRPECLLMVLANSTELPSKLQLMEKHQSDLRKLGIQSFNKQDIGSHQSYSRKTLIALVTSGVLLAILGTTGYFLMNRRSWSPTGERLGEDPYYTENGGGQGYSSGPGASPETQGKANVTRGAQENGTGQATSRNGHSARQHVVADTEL
Put plainly: flow cytometry. The following applies: whole-cell binding to mouse orbital fibroblasts, 4 C, 1 h, SELEX binding buffer: DPBS, 4.5 mg/mL D-glucose, 5 mM MgCl2, 1 mg/mL BSA, 1 mg/mL yeast tRNA, flow cytometry at 4 C, pull-down lysis buffer 5 mM ….

With “CAGCACCGTCAACTGAATCTCATTGCGGCGTCCGGCTGGACGTTATTGTTGGAACCGTGATGCGATGGAGATGT [CD34 Apt (FAM)]”, the results for the equilibrium dissociation constant (Kd) in series [1] and in series [2] were 19.1 nM and 90.3 nM, respectively.
